Measured values published in paper PMC11879086, “Identification and characterization of a human MORC2 DNA binding region that is required for gene silencing” (Nucleic Acids Research, 2024).

Legend:
MORC2 subset N = biological target: T1, MORC2 subset N (Homo sapiens, UniProt Q9Y6X9 1-1032, K704D;R707D;K713D;K716D;K721D;K722D); assay: fluorescence anisotropy; apo; FA/EMSA: 50 mM NaCl, 3 mM MgCl2, 20 mM Na-HEPES pH 7.4, 1 mM TCEP, 10% glycerol, 0.025 mM ZnCl2, 50 ug/ml BSA, room temperature; 1 nM nucleic acid (FA) or 20 nM DNA (EMSA); conditions: protein: recombinant; tags: tag removed by TEV; chain copies: 2; label: 5'-6-FAM; blunt
T1 sequence: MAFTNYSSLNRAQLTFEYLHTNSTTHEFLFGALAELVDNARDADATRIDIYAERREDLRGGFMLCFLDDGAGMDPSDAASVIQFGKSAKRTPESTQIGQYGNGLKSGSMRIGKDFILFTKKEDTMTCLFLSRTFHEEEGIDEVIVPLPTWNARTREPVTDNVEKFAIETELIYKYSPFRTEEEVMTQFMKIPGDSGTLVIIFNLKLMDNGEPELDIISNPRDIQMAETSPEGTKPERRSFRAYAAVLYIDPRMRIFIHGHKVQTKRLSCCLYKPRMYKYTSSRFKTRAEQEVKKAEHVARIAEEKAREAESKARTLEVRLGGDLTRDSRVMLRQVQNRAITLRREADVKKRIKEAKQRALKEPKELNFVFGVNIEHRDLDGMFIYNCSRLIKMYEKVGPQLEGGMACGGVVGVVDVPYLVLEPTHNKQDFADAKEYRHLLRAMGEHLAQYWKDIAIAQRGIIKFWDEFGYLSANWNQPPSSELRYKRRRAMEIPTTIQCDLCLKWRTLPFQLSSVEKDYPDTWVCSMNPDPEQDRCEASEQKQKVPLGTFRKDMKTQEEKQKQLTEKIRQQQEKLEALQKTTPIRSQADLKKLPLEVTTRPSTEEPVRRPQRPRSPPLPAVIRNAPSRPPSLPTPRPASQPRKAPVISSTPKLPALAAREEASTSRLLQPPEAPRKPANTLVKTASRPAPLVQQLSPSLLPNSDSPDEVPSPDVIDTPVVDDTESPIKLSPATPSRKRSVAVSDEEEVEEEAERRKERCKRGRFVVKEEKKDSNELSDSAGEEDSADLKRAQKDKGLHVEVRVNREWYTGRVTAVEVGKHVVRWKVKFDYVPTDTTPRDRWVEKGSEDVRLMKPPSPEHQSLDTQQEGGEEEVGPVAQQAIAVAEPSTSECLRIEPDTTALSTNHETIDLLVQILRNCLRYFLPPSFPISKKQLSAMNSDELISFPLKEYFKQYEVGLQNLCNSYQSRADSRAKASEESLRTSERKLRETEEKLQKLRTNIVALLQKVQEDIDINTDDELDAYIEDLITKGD

MORC2 subset C = biological target: T2, MORC2 subset C (Homo sapiens, UniProt Q9Y6X9 1-1032, R754D;R755D;K756D;R758D;K760D;R761D); assay: as above; conditions: protein: recombinant; tags: tag removed by TEV; chain copies: 2; label: 5'-6-FAM; blunt
T2 sequence: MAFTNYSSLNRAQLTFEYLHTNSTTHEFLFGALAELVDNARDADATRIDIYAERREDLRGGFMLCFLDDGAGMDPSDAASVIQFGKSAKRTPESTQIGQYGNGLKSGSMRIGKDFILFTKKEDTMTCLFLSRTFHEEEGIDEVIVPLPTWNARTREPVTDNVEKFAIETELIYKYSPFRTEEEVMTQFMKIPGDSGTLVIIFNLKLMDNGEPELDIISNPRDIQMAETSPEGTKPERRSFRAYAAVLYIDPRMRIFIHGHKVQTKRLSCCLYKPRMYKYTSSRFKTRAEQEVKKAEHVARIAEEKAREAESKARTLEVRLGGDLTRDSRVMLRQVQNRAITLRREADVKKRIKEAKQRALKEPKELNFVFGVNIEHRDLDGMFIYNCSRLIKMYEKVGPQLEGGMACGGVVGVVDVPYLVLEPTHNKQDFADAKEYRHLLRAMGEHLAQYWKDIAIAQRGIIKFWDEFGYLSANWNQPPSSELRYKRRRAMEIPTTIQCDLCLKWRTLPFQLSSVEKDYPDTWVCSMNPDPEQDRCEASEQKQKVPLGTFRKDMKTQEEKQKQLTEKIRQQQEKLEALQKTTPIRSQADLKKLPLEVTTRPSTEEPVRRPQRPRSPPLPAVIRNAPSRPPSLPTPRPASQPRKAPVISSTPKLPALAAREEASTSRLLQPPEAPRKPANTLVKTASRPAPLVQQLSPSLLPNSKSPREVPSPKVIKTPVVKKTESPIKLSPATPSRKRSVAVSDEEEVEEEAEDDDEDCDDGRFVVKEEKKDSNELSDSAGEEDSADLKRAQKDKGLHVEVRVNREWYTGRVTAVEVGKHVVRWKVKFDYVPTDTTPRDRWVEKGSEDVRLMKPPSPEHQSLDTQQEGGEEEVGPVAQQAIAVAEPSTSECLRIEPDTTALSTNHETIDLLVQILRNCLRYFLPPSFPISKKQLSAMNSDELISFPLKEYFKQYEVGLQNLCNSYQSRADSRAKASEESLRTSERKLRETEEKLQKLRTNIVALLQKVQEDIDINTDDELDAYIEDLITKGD

B1: Random 35mer dsDNA (dsDNA)
DNA 1: ATAGGGTCCATCAGAATTCGGATGAACTCGGTGTG
DNA 2: CACACCGAGTTCATCCGAATTCTGATGGACCCTAT
Binder B1 has a Kd (MORC2 subset N) of 90 ± 20 nM and a Kd (MORC2 subset C) of 60 ± 20 nM.
